System: chimeric Caspase-9 polypeptide
Experiment: Caspase mutant classes and basal activity (Table 3)
Assay type: cell-based, human
Conditions: class heading of Table 3; for IC50: ligand IC50

Sequence of chimeric Caspase-9 polypeptide (as listed by the source, change not shown): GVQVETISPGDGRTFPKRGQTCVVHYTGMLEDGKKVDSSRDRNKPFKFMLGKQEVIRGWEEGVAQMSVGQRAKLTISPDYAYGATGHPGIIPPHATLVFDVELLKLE

Molecule	Basal Activity	IC50
N405Q (protein) GFGDVGALESLRGNADLAYILSMEPCGHCLIINNVNFCRESGLRTRTGSNIDCEKLRRRFSSLHFMVEVKGDLTAKKMVLALLELAQQDHGALDCCVVVILSHGCQASHLQFPGAVYGTDGCPVSVEKIVNIFNGTSCPSLGGKPKLFFIQACGGEQKDHGFEVASTSPEDESPGSNPEPDATPFQEGLRTFDQLDAISSLPTPSDIFVSYSTFPGFVSWRDPKSGSWYVETLDDIFEQWAHSEDLQSLLLRVANAVSVKGIYKQMPGCFQFLRKKLFFKTS	Decreased	higher IC50
D330G (protein) GFGDVGALESLRGNADLAYILSMEPCGHCLIINNVNFCRESGLRTRTGSNIDCEKLRRRFSSLHFMVEVKGDLTAKKMVLALLELAQQDHGALDCCVVVILSHGCQASHLQFPGAVYGTDGCPVSVEKIVNIFNGTSCPSLGGKPKLFFIQACGGEQKDHGFEVASTSPEDESPGSNPEPDATPFQEGLRTFDQLGAISSLPTPSDIFVSYSTFPGFVSWRDPKSGSWYVETLDDIFEQWAHSEDLQSLLLRVANAVSVKGIYKQMPGCFNFLRKKLFFKTS	Decreased	higher IC50
D330N (protein) GFGDVGALESLRGNADLAYILSMEPCGHCLIINNVNFCRESGLRTRTGSNIDCEKLRRRFSSLHFMVEVKGDLTAKKMVLALLELAQQDHGALDCCVVVILSHGCQASHLQFPGAVYGTDGCPVSVEKIVNIFNGTSCPSLGGKPKLFFIQACGGEQKDHGFEVASTSPEDESPGSNPEPDATPFQEGLRTFDQLNAISSLPTPSDIFVSYSTFPGFVSWRDPKSGSWYVETLDDIFEQWAHSEDLQSLLLRVANAVSVKGIYKQMPGCFNFLRKKLFFKTS	Decreased	higher IC50
D330S (protein) GFGDVGALESLRGNADLAYILSMEPCGHCLIINNVNFCRESGLRTRTGSNIDCEKLRRRFSSLHFMVEVKGDLTAKKMVLALLELAQQDHGALDCCVVVILSHGCQASHLQFPGAVYGTDGCPVSVEKIVNIFNGTSCPSLGGKPKLFFIQACGGEQKDHGFEVASTSPEDESPGSNPEPDATPFQEGLRTFDQLSAISSLPTPSDIFVSYSTFPGFVSWRDPKSGSWYVETLDDIFEQWAHSEDLQSLLLRVANAVSVKGIYKQMPGCFNFLRKKLFFKTS	Decreased	higher IC50
D330V (protein) GFGDVGALESLRGNADLAYILSMEPCGHCLIINNVNFCRESGLRTRTGSNIDCEKLRRRFSSLHFMVEVKGDLTAKKMVLALLELAQQDHGALDCCVVVILSHGCQASHLQFPGAVYGTDGCPVSVEKIVNIFNGTSCPSLGGKPKLFFIQACGGEQKDHGFEVASTSPEDESPGSNPEPDATPFQEGLRTFDQLVAISSLPTPSDIFVSYSTFPGFVSWRDPKSGSWYVETLDDIFEQWAHSEDLQSLLLRVANAVSVKGIYKQMPGCFNFLRKKLFFKTS	Decreased	higher IC50
L329E (protein) GFGDVGALESLRGNADLAYILSMEPCGHCLIINNVNFCRESGLRTRTGSNIDCEKLRRRFSSLHFMVEVKGDLTAKKMVLALLELAQQDHGALDCCVVVILSHGCQASHLQFPGAVYGTDGCPVSVEKIVNIFNGTSCPSLGGKPKLFFIQACGGEQKDHGFEVASTSPEDESPGSNPEPDATPFQEGLRTFDQEDAISSLPTPSDIFVSYSTFPGFVSWRDPKSGSWYVETLDDIFEQWAHSEDLQSLLLRVANAVSVKGIYKQMPGCFNFLRKKLFFKTS	Decreased	higher IC50
T317A (protein) GFGDVGALESLRGNADLAYILSMEPCGHCLIINNVNFCRESGLRTRTGSNIDCEKLRRRFSSLHFMVEVKGDLTAKKMVLALLELAQQDHGALDCCVVVILSHGCQASHLQFPGAVYGTDGCPVSVEKIVNIFNGTSCPSLGGKPKLFFIQACGGEQKDHGFEVASTSPEDESPGSNPEPDAAPFQEGLRTFDQLDAISSLPTPSDIFVSYSTFPGFVSWRDPKSGSWYVETLDDIFEQWAHSEDLQSLLLRVANAVSVKGIYKQMPGCFNFLRKKLFFKTS	Decreased	higher IC50
S183A (protein) GFGDVGALESLRGNADLAYILSMEPCGHCLIINNVNFCRESGLRTRTGANIDCEKLRRRFSSLHFMVEVKGDLTAKKMVLALLELAQQDHGALDCCVVVILSHGCQASHLQFPGAVYGTDGCPVSVEKIVNIFNGTSCPSLGGKPKLFFIQACGGEQKDHGFEVASTSPEDESPGSNPEPDATPFQEGLRTFDQLDAISSLPTPSDIFVSYSTFPGFVSWRDPKSGSWYVETLDDIFEQWAHSEDLQSLLLRVANAVSVKGIYKQMPGCFNFLRKKLFFKTS	Decreased	higher IC50
S195A (protein) GFGDVGALESLRGNADLAYILSMEPCGHCLIINNVNFCRESGLRTRTGSNIDCEKLRRRFASLHFMVEVKGDLTAKKMVLALLELAQQDHGALDCCVVVILSHGCQASHLQFPGAVYGTDGCPVSVEKIVNIFNGTSCPSLGGKPKLFFIQACGGEQKDHGFEVASTSPEDESPGSNPEPDATPFQEGLRTFDQLDAISSLPTPSDIFVSYSTFPGFVSWRDPKSGSWYVETLDDIFEQWAHSEDLQSLLLRVANAVSVKGIYKQMPGCFNFLRKKLFFKTS	Decreased	higher IC50
S196A (protein) GFGDVGALESLRGNADLAYILSMEPCGHCLIINNVNFCRESGLRTRTGSNIDCEKLRRRFSALHFMVEVKGDLTAKKMVLALLELAQQDHGALDCCVVVILSHGCQASHLQFPGAVYGTDGCPVSVEKIVNIFNGTSCPSLGGKPKLFFIQACGGEQKDHGFEVASTSPEDESPGSNPEPDATPFQEGLRTFDQLDAISSLPTPSDIFVSYSTFPGFVSWRDPKSGSWYVETLDDIFEQWAHSEDLQSLLLRVANAVSVKGIYKQMPGCFNFLRKKLFFKTS	Decreased	higher IC50
D330A-N405Q (protein) GFGDVGALESLRGNADLAYILSMEPCGHCLIINNVNFCRESGLRTRTGSNIDCEKLRRRFSSLHFMVEVKGDLTAKKMVLALLELAQQDHGALDCCVVVILSHGCQASHLQFPGAVYGTDGCPVSVEKIVNIFNGTSCPSLGGKPKLFFIQACGGEQKDHGFEVASTSPEDESPGSNPEPDATPFQEGLRTFDQLAAISSLPTPSDIFVSYSTFPGFVSWRDPKSGSWYVETLDDIFEQWAHSEDLQSLLLRVANAVSVKGIYKQMPGCFQFLRKKLFFKTS	Decreased	higher IC50
